From publication PMC13031426

Molecular target: Complex III (cytochrome bc1 complex) dimer of the ΔQCR6 yeast supercomplex (Saccharomyces cerevisiae) (UniProt P07143)
Assay: cryo-EM structure

## Complex III (cytochrome bc1 complex) dimer of the ΔQCR6 yeast supercomplex (from UniProt P07143 62-309)
  stoichiometry N: 2
